From patent publication US11739161B2, “Methods for treating and diagnosing prostate cancer” (Tufts Medical Center, Inc., priority 2017, dated 2023)

Columns and labels:
Assay type in all cases: cell-based, human
[1] = tested on: DU145 cells; experiment: RNASE4 knockdown, colony formation in soft agar; settings: DU145, exogenous RNASE4 1 μg/ml, 14 days
Excerpt: (§1) FIGS. 14A-D. RNASE4 knockdown inhibits DU145 cell proliferation in vitro and colony formation in soft agar. (A) Immunoblot analysis of RNASE4 in DU145 cells stably transfected with shControl, shRNASE4-1, and shRNASE4-2. (B) qRT-PCR analysis of RNASE4 mRNA normalized to GAPDH in DU145 cells stably transfected with shControl, shRNASE4-1, and shRNASE4-2. (C) Effect of RNASE4 knockdown on cell proliferation. Cell numbers were counted by Coulter counter. Exogenous RNASE4, when presented, was at the concentration of 1 μg/ml. Data shown are from a representative experiment in triplicates of 3 independent experiments. (D) Effects of RNASE4 knockdown on colonies formation and growth of DU145 cells in soft agar. The same numbers of control and RNASE4 knockdown cells were seeded in soft agar, and grown in the absence or presence of 1 μg/ml of RNASE4 for 14 days. Colonies were counted and size measured on a Nikon Eclipse ti microscope. Top panels, representative images of colonies; scale bars=100 μm. Bottom panels, quantification of DU145 cell colonies and sizes in soft agar. Data shown are means±SEM of five randomly selected fields per dish from a representative experiment. **P≤0.01 and ***P≤0.001, by two-tailed Student's t test.
(§2) Lentiviral mediated shRNA system (pGIPZ, Open Biosystems) was used to generate control and RNASE4 knockdown cell lines. […]

[2] = tested on: AKT and S6 phosphorylation in PC-3 cells; experiment: RNASE4-induced phosphorylation of AKT and S6 (immunoblot); settings: serum-starved PC-3, RNASE4 1 μg/ml, time course
Procedure: FIGS. 11A-F. RNASE4 induces PC-3 cell proliferation and phosphorylation of AKT and S6. (A) Exogenous RNASE4 (1 μg/ml) stimulates PC-3 cells proliferation in the presence of 2% FBS. Cell numbers were determined by MTT assay. (B) Time course of AKT and S6 phosphorylation of serum-starved PC-3 cells by RNASE4 (1 μg/ml). Left panels, immunoblots; right panels, quantification of p-AKT and p-S6 normalized to total AKT and S6 by Image J. (C) Effect of AKT inhibitor MK-2206, PI3K inhibitors LY294002 and Wortmannin, and mTOR inhibitor Rapamycin on RNASE4-induced PC-3 cell proliferation. Cells were pre-incubated with the inhibitors at the indicated concentrations for 1 hour prior to be stimulated by RNASE4 (1 μg/ml) for 3 days. Cell numbers were determined by MTT assay. (D) Human phospho-RTK antibody array analysis of starved PC-3 cells treated with or without 1 μg/ml RNASE4 for 5 minutes. (E) Time course of AXL phosphorylation stimulated by RNASE4 in PC-3 cells. Serum-starved PC-3 cells were treated with 1 μg/ml RNASE4 for different time. Cell lysates were analyzed for total AXL and phopho-AXL by immunoblotting. Left panels, immunoblots; right panel, quantification phospho-AXL normalized to total AXL by Image J analysis. (F) Effect of AXL inhibitor R428 on RNASE4-induced PC-3 cell proliferation. […] Cell numbers were determined by MTT assay. […]

[3] = tested on: DU145 cells; experiment: RNASE4 knockdown, cell proliferation (Coulter counter); settings: DU145, exogenous RNASE4 1 μg/ml
Excerpt: as §1, §2

[4] = tested on: PC-3 cells; experiment: RNASE4-induced cell proliferation (MTT assay); settings: exogenous RNASE4 1 μg/ml, PC-3, 2% FBS
Procedure: FIGS. 11A-F. RNASE4 induces PC-3 cell proliferation and phosphorylation of AKT and S6. (A) Exogenous RNASE4 (1 μg/ml) stimulates PC-3 cells proliferation in the presence of 2% FBS. Cell numbers were determined by MTT assay. (B) Time course of AKT and S6 phosphorylation of serum-starved PC-3 cells by RNASE4 (1 μg/ml). Left panels, immunoblots; right panels, quantification of p-AKT and p-S6 normalized to total AKT and S6 by Image J. (C) Effect of AKT inhibitor MK-2206, PI3K inhibitors LY294002 and Wortmannin, and mTOR inhibitor Rapamycin on RNASE4-induced PC-3 cell proliferation. Cells were pre-incubated with the inhibitors at the indicated concentrations for 1 hour prior to be stimulated by RNASE4 (1 μg/ml) for 3 days. Cell numbers were determined by MTT assay. (D) Human phospho-RTK antibody array analysis of starved PC-3 cells treated with or without 1 μg/ml RNASE4 for 5 minutes. (E) Time course of AXL phosphorylation stimulated by RNASE4 in PC-3 cells. Serum-starved PC-3 cells were treated with 1 μg/ml RNASE4 for different time. Cell lysates were analyzed for total AXL and phopho-AXL by immunoblotting. Left panels, immunoblots; right panel, quantification phospho-AXL normalized to total AXL by Image J analysis. (F) Effect of AXL inhibitor R428 on RNASE4-induced PC-3 cell proliferation. Serum-starved PC-3 cells were incubated with 1 or 3 μM R428 for 3 hours and then stimulated by 1 μg/ml of RNASE4 for 3 days. Cell numbers were determined by MTT assay. Data shown are means±SEM of a representative experiments in triplicates of 3 independent repeats. **P≤0.01 and ***P≤0.001, by unpaired two-tailed Student's t test.

[5] = tested on: LNCaP cells; experiment: RNASE4 knockdown, colony formation in soft agar; settings: exogenous RNASE4 1 μg/ml, 14 days
Excerpt: FIGS. 15A-D. RNASE4 knockdown inhibits LNCaP cell proliferation in vitro and colony formation in soft agar. (A) Immunoblot analysis of RNASE4 in LNCaP cells stably transfected with shControl, shRNASE4-1, and shRNASE4-2. (B) qRT-PCR analysis of RNASE4 mRNA normalized to GAPDH in LNCaP cells stably transfected with shControl, shRNASE4-1, and shRNASE4-2. (C) Effect of RNASE4 knockdown on LNCaP cell proliferation. Cell numbers were counted by Coulter counter. Exogenous RNASE4, when presented, was at the concentration of 1 μg/ml. Data shown are from a representative experiment in triplicates of 3 independent experiments. (D) Effects of RNASE4 knockdown on colonies formation and growth of LNCaP cells in soft agar. The same numbers of control and RNASE4 knockdown cells were seeded in soft agar, and grown in the absence or presence of 1 μg/ml of RNASE4 for 14 days. Colonies were counted and size measured on a Nikon Eclipse ti microscope. Top panels, representative images of colonies; scale bars=100 μm. Bottom panels, quantification of LMCaP cell colonies and sizes in soft agar. Data shown are means±SEM of five randomly selected fields per dish from a representative experiment. **P≤0.01 and ***P≤0.001, by two-tailed Student's t test.
as §2

B1: RNASE4: recombinant human RNASE4 protein from pET11 expression in E. coli, purified by reversed-phase HPLC; added exogenously (protein, UniProt P34096 29-147, looked up)
Ribonuclease 4: QDGMYQRFLRQHVHPEETGGSDRYCNLMMQRRKMTLYHCKRFNTFIHEDIWNIRSICSTTNIQCKNGKMNCHEGVVKVTDCRDTGSSRAPNCRYRAIASTRRVVIACEGNPQVPVHFDG
- rescue of the effect of RNASE4 knockdown on colony formation [1]: able to rescue
- activation (phosphorylation) of AKT and S6 [2]: rapidly and continuously activated
- rescue of the effect of RNASE4 knockdown on cell proliferation [3]: able to rescue
- cell proliferation [4]: stimulates
- rescue of the effect of RNASE4 knockdown on colony formation [5]: able to rescue
